The results in this text go back to PMC4932919, “Structural and functional studies of the glycoside hydrolase family 3 β-glucosidase Cel3A from the moderately thermophilic fungus Rasamsonia emersonii” (Acta Crystallographica. Section D, Structural Biology, 2016).

Usually stoichiometry N stands for a count of units in the complex or per binding partner. In general, Km refers to the substrate concentration at which the rate is half of its maximum. One may read the kcat as the number of substrate molecules converted per active site and unit of time at saturation. In general, kcat/Km refers to the turnover number divided by the Michaelis constant.

The target of one series is T1, HjCel3A (Trichoderma reesei, UniProt Q12715).
T1 construct: gene bgl1
T1 sequence (Q12715 20-744): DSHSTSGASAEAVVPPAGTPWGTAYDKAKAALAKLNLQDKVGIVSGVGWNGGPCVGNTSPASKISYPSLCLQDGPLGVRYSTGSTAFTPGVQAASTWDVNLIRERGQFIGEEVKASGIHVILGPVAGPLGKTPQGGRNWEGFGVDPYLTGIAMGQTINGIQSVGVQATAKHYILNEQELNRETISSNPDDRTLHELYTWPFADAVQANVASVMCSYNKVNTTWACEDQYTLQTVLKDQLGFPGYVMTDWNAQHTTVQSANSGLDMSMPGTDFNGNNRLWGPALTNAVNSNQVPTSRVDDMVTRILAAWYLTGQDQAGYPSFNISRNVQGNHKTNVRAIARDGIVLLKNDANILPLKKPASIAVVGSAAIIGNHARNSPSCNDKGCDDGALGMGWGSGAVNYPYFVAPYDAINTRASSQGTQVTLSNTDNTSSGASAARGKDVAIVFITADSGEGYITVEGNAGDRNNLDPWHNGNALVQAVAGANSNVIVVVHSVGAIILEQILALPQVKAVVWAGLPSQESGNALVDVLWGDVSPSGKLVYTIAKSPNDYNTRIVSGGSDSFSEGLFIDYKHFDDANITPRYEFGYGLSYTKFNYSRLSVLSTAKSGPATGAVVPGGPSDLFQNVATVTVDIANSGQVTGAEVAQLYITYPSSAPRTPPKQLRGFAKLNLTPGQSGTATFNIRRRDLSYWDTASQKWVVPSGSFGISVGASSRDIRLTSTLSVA
Description: differential scanning calorimetry. Conditions: 1000 µM; 1 mM glucose; 10 mM sodium acetate pH 5.0; Tm without glucose 77.6 °C; scan rate 200°C/h; irreversible unfolding. The series is classed as binding. The source says:
differential scanning calorimetry on HjCel3A
A general note: In DSC, transitions show as peaks or steps in heat flow.

In series [1] the target is β-glucosidase Cel3A from Rasamsonia emersonii (Rasamsonia emersonii). Description: SEC; gel-filtration characterization of purified ReCel3A; conditions of this run not told. (In general: In gel filtration, larger molecules generally elute earlier.)
Substrate in series [2]: O=[N+]([O-])c1ccc(O[C@@H]2O[C@H](CO)[C@@H](O)[C@H](O)[C@H]2O)cc1
Description: purified protein. To be noted: 100 mM phosphate pH 5.0, 37°C.

Substrate in series [3]: O=[N+]([O-])c1ccc(O[C@@H]2OC[C@@H](O)[C@H](O)[C@H]2O)c(Cl)c1
Put plainly: chromogenic substrate kinetics (method for CNPX not described). The series is classed as biochemical, Rasamsonia emersonii. Conditions: conditions for CNPX not stated, other chromogenic substrates pH 5.0, 37°C.

Substrate in series [4]: O=[N+]([O-])c1ccc(O[C@@H]2O[C@H](CO)[C@@H](O)[C@H](O)[C@H]2O)c(Cl)c1
Put plainly: purified protein. It counts as biochemical, Rasamsonia emersonii. To be noted: 100 mM phosphate pH 5.0, 37°C.

Consider `OC[C@H]1OC(O)[C@H](O)[C@@H](O)[C@@H]1O` (some centres unmarked) [glucose], for which the “T m (°C)” value on HjCel3A stood at 79.0 °C.

“β-glucosidase Cel3A from Rasamsonia emersonii (enzyme)”: the stoichiometry N in series [1] was 2.

B1: ReCel3A (Rasamsonia emersonii) (protein)
chain: NLAYSPPFYPSPWANGQGDWAEAYQKAVQFVSQLTLAEKVNLTTGTGWEQDRCVGQVGSIPRLGFPGLCMQDSPLGVRDTDYNSAFPAGVNVAATWDRNLAYRRGVAMGEEHRGKGVDVQLGPVAGPLGRSPDAGRNWEGFAPDPVLTGNMMASTIQGIQDAGVIACAKHFILYEQEHFRQGAQDGYDISDSISANADDKTMHELYLWPFADAVRAGVGSVMCSYNQVNNSYACSNSYTMNKLLKSELGFQGFVMTDWGGHHSGVGSALAGLDMSMPGDIAFDSGTSFWGTNLTVAVLNGSIPEWRVDDMAVRIMSAYYKVGRDRYSVPINFDSWTLDTYGPEHYAVGQGQTKINEHVDVRGNHAEIIHEIGAASAVLLKNKGGLPLTGTERFVGVFGKDAGSNPWGVNGCSDRGCDNGTLAMGWGSGTANFPYLVTPEQAIQREVLSRNGTFTGITDNGALAEMAAAASQADTCLVFANADSGEGYITVDGNEGDRKNLTLWQGADQVIHNVSANCNNTVVVLHTVGPVLIDDWYDHPNVTAILWAGLPGQESGNSLVDVLYGRVNPGKTPFTWGRARDDYGAPLIVKPNNGKGAPQQDFTEGIFIDYRRFDKYNITPIYEFGFGLSYTTFEFSQLNVQPINAPPYTPASGFTKAAQSFGQPSNASDNLYPSDIERVPLYIYPWLNSTDLKASANDPDYGLPTEKYVPPNATNGDPQPIDPAGGAPGGNPSLYEPVARVTTIITNTGKVTGDEVPQLYVSLGGPDDAPKVLRGFDRITLAPGQQYLWTTTLTRRDISNWDPVTQNWVVTNYTKTIYVGNSSRNLPLQAPLKPYPGI
notes: secreted mature protein, signal peptide 1-20 removed; codon-optimized gene expressed in Hypocrea jecorina RL-P37 derivative with four cellulases deleted; no tag; N-glycosylated; dimer in solution; visible residues Asp21-Pro855
In the case of B1, in the series “purified protein [2]”, the Km was found to be 400 µM, the kcat worked out at 5.4 s⁻¹ and the kcat/Km was found to be 14000 M⁻¹ s⁻¹. Further, in series [3], the Km was 660 µM, the kcat is 0.23 s⁻¹ and the kcat/Km amounted to 350 M⁻¹ s⁻¹. In “purified protein [4]”, the Km turned out to be 400 µM, the kcat turned out to be 14 s⁻¹ and the kcat/Km turned out to be 36000 M⁻¹ s⁻¹.
